To fix the notation:
B1: Androgen receptor, residues 557 to 632; numbered along this chain, P10275 (parent)
chain: QKTCLICGDEASGCHYGALTCGSCKVFFKRAAEGKQKYLCASRNDCTIDKFRRKNCPSCRLRKCYEAGMTLGARKL
B2: KAT8 regulatory NSL complex subunit 2, residues 28 to 91; numbered along this chain, Q9H9L4 (parent)
chain: CAFTHRPCSHPRLEGQEFCIKHILEDKNAPFKQCSYISTKNGKRCPNAAPKPEKKDGVSFCAEH

± gives the uncertainty stated by the source.

In the first data set the parent is B1. In words: abundance fitness (aPCA) (normalised: wild type 0, dead -1); higher = more abundant; growth selection in yeast, the domain comes from the species named. The following applies: Homo sapiens.
Regarding Q1M, the abundance fitness stood at 0.007 ± 0.1. Same read-out and setting: to Q1H belongs -0.504 ± 0.32; to Q1F, 0.16 ± 0.14. Consider Q1K, for which the abundance fitness was found to be 0.076 ± 0.079. Still for that read-out and setting: to Q1L belongs -0.027 ± 0.086. On to Q1I, for which the abundance fitness was 0.198 ± 0.15. Same read-out and setting: in the case of Q1V it was 0.06 ± 0.12; in that of Q1S, -0.058 ± 0.082. On the same count and under the same terms, to L19W belongs 0.029 ± 0.091; to L19S, -0.109 ± 0.051. Consider L19V, for which the abundance fitness was -0.035 ± 0.047. As for L19G, the abundance fitness is -0.399 ± 0.044. Same read-out and setting: to L19R belongs -0.006 ± 0.044; to L19K, -0.015 ± 0.043. As for L19C, the abundance fitness is -0.19 ± 0.16. In the case of L19N, the abundance fitness is -0.065 ± 0.057. Turning to L19E, the abundance fitness worked out at 0.034 ± 0.043.

Consider L19A, for which the abundance fitness is -0.063 ± 0.049. Same read-out and setting: to L19Y belongs -0.101 ± 0.081; to L19T, -0.017 ± 0.13; to L19I, -0.034 ± 0.1. Same read-out and setting: in the case of L19Q it was 0.059 ± 0.11; in that of L19P, -0.106 ± 0.23. The same measure, in the same setting: to L19D belongs -0.048 ± 0.063.

L19M: the abundance fitness was -0.03 ± 0.075. On the same count and under the same terms, to G17R belongs -0.33 ± 0.032; to G17L, -0.552 ± 0.048; to G17S, -0.319 ± 0.05.

Regarding G17T, the abundance fitness was -0.411 ± 0.054. On the same count and under the same terms, to G17P belongs -0.691 ± 0.092; to G17W, -0.645 ± 0.065. The same measure, in the same setting: to G17M belongs -0.229 ± 0.057; to G17N, -0.061 ± 0.23; to G17Q, -0.357 ± 0.05. The same measure, in the same setting: in the case of C7G it was -0.874 ± 0.15; in that of C7Y, -0.583 ± 0.4; in that of C7T, -0.819 ± 0.47. For C7N, the abundance fitness is -0.212 ± 0.14. Consider C7W, for which the abundance fitness is -0.79 ± 0.47. Same read-out and setting: in the case of C7V it was -1.2 ± 0.34. Same read-out and setting: to C7E belongs -1.03 ± 0.39. Same read-out and setting: in the case of C7L it was -0.886 ± 0.2.

Take C7S: the abundance fitness is -0.615 ± 0.17. Same read-out and setting: in the case of I6Q it was -0.459 ± 0.26; in that of I6V, -0.243 ± 0.07. With I6C, the abundance fitness was -0.327 ± 0.21. The same measure, in the same setting: in the case of I6T it was -0.256 ± 0.11; in that of I6D, -0.646 ± 0.24. The same measure, in the same setting: in the case of I6S it was -0.617 ± 0.16; in that of I6K, -1.05 ± 0.28; in that of I6A, -0.427 ± 0.12.

With I6R, the abundance fitness is -0.525 ± 0.11. Still for that read-out and setting: to I6M belongs -0.811 ± 0.24. On the same count and under the same terms, in the case of I6L it was -0.789 ± 0.19. Still for that read-out and setting: in the case of A18G it was -0.335 ± 0.033.

For the variant A18L, the abundance fitness was -0.155 ± 0.034. On the same count and under the same terms, to A18R belongs -0.24 ± 0.039; to A18Y, -0.776 ± 0.13. The same measure, in the same setting: to A18P belongs -0.26 ± 0.052. On the same count and under the same terms, in the case of A18F it was -0.684 ± 0.12; in that of A18W, -1.07 ± 0.12; in that of A18D, -0.232 ± 0.073. Turning to A18H, the abundance fitness was -0.799 ± 0.15.

In the case of A18C, the abundance fitness is -0.084 ± 0.047. Consider A18Q, for which the abundance fitness was -0.223 ± 0.045.

Take A18E: the abundance fitness is -0.617 ± 0.074. On the same count and under the same terms, in the case of A18V it was -0.04 ± 0.033; in that of A18I, 0.124 ± 0.16.

As to A18S, the abundance fitness was -0.142 ± 0.048. As to G13K, the abundance fitness is -0.229 ± 0.088. As for G13R, the abundance fitness is -0.2 ± 0.061. Same read-out and setting: to G13L belongs -0.115 ± 0.064; to G13S, -0.034 ± 0.074; to G13A, -0.167 ± 0.07.

As to G13T, the abundance fitness was -0.057 ± 0.094. Same read-out and setting: to G13D belongs -0.198 ± 0.13; to G13I, -0.416 ± 0.28. On the same count and under the same terms, in the case of G13V it was -0.061 ± 0.062; in that of G13N, -0.201 ± 0.13. On the same count and under the same terms, in the case of G13M it was -0.163 ± 0.083. On to G13E, for which the abundance fitness is -0.274 ± 0.13.

As for G13C, the abundance fitness is -0.311 ± 0.24.

For the variant G13W, the abundance fitness is -0.571 ± 0.12.

Variants of B2 are the subject of the next data set. Described as above. Particulars: Homo sapiens.
As for F3E, the abundance fitness is -0.285 ± 0.085. Still for that read-out and setting: in the case of A49F it was -0.124 ± 0.071. The same measure, in the same setting: in the case of S35F it was -0.012 ± 0.069.

In the case of S35H, the abundance fitness was -0.333 ± 0.21. Same read-out and setting: to S38P belongs -0.028 ± 0.067; to I20M, -0.031 ± 0.066.

For I20K, the abundance fitness was -0.195 ± 0.084. On the same count and under the same terms, in the case of N41S it was -0.052 ± 0.054; in that of N41K, 0.019 ± 0.11; in that of N41R, -0.06 ± 0.048.

On to F31Y, for which the abundance fitness is -0.195 ± 0.15. On to F31S, for which the abundance fitness was -0.179 ± 0.058. On the same count and under the same terms, to F31W belongs -0.116 ± 0.088; to H10Q, -0.078 ± 0.086. Still for that read-out and setting: to H10R belongs -0.064 ± 0.045; to R6T, -0.088 ± 0.066. For the variant C61G, the abundance fitness is -0.393 ± 0.041. Still for that read-out and setting: to C61T belongs -0.356 ± 0.049; to T4R, -0.399 ± 0.085; to T4G, -0.394 ± 0.082. Same read-out and setting: in the case of D56S it was -0.067 ± 0.063; in that of D56A, -0.111 ± 0.085. On the same count and under the same terms, in the case of Q16S it was -0.091 ± 0.054; in that of Q16V, -0.38 ± 0.068; in that of I37Y, -0.137 ± 0.098.

With N47L, the abundance fitness was -0.053 ± 0.047. As to N47Q, the abundance fitness is 0.061 ± 0.079.

Regarding P52S, the abundance fitness is -0.082 ± 0.052. In the case of P52A, the abundance fitness was -0.072 ± 0.046. The same measure, in the same setting: to S59Q belongs -0.045 ± 0.098; to S59H, -0.157 ± 0.15; to S59M, -0.084 ± 0.11. Still for that read-out and setting: to P46D belongs -0.155 ± 0.075; to G15V, -0.972 ± 0.076; to G15F, -0.406 ± 0.1.

Turning to E25N, the abundance fitness is -0.203 ± 0.1. Still for that read-out and setting: to L24Q belongs -0.147 ± 0.067; to Q33S, -0.182 ± 0.061; to K43C, -0.141 ± 0.08. On to K43W, for which the abundance fitness is -0.141 ± 0.074.

Regarding H22K, the abundance fitness is -0.678 ± 0.087.

Take Y36H: the abundance fitness is -0.016 ± 0.089.

Consider Y36T, for which the abundance fitness is -0.054 ± 0.066. The same measure, in the same setting: in the case of Y36C it was -0.173 ± 0.093; in that of Y36A, -0.096 ± 0.056. Take Y36I: the abundance fitness was -0.131 ± 0.092.

With I23K, the abundance fitness is -0.165 ± 0.085. Same read-out and setting: in the case of I23P it was -0.627 ± 0.062; in that of I23W, -0.286 ± 0.049.

On to I23V, for which the abundance fitness was -0.124 ± 0.048.

Regarding S9P, the abundance fitness is -0.174 ± 0.066. Take S9E: the abundance fitness was -0.191 ± 0.083. On the same count and under the same terms, to S9T belongs -0.193 ± 0.062; to G42M, -0.139 ± 0.087. G42A: the abundance fitness was -0.053 ± 0.06. On the same count and under the same terms, in the case of G42T it was -0.055 ± 0.073; in that of G42E, -0.005 ± 0.075; in that of E63I, -0.223 ± 0.1. Same read-out and setting: to E63H belongs 0.136 ± 0.16.

For E63C, the abundance fitness was -0.111 ± 0.077. Still for that read-out and setting: in the case of A62N it was -0.105 ± 0.14; in that of P30H, -0.253 ± 0.093; in that of C19I, -1.19 ± 0.069. On the same count and under the same terms, to C19D belongs -0.994 ± 0.13; to T39I, -0.123 ± 0.066. On the same count and under the same terms, to T39H belongs -0.091 ± 0.067; to T39V, -0.097 ± 0.082; to T39L, -0.209 ± 0.072.

Regarding V58I, the abundance fitness is -0.048 ± 0.074. On the same count and under the same terms, to V58A belongs -0.018 ± 0.094; to P7H, -0.133 ± 0.14; to K27S, -0.093 ± 0.049.

For the variant K27Q, the abundance fitness was -0.149 ± 0.095.

As to C1N, the abundance fitness was -0.615 ± 0.19.

For the variant C1E, the abundance fitness is -0.322 ± 0.09. For C1D, the abundance fitness was -0.896 ± 0.17. Same read-out and setting: in the case of C1V it was -0.865 ± 0.094; in that of K51S, -0.105 ± 0.064. Still for that read-out and setting: to K51C belongs -0.072 ± 0.092; to K51A, -0.03 ± 0.071. Same read-out and setting: in the case of A2I it was -0.198 ± 0.13; in that of A2G, -0.101 ± 0.055; in that of A2N, 0.023 ± 0.17. For H64K, the abundance fitness is -0.509 ± 0.34.
